Assay results reported in PMC3021567, “Gene expression profiling of connective tissue growth factor (CTGF) stimulated primary human tenon fibroblasts reveals an inflammatory and wound healing response in vitro” (Molecular Vision, 2011).

Molecular target: T1, recombinant human connective tissue growth factor (human, UniProt P29279 27-349)
T1 construct: signal peptide in the construct; connective tissue growth factor (CTGF), human, cDNA for full-length rhCTGF aa 1-349, Swiss-Prot P29279; secreted into the supernatant of HEK293T cells; The purified protein runs as two bands, 36 kDa (unglycosylated) and 38 kDa (glycosylated); No tag is mentioned; also called hCTGF; rhCTGF
T1 sequence (looked up): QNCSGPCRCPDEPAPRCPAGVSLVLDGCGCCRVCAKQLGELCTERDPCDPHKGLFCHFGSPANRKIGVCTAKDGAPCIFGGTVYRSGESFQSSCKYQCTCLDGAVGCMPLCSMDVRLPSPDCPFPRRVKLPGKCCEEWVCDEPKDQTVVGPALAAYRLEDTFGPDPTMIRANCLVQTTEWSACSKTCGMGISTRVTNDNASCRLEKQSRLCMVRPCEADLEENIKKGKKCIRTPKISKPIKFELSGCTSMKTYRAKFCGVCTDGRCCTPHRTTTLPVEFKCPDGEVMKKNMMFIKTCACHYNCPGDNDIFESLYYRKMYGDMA
Assay: SPR; BIACORE 2000; biotinylated BMP-2 immobilised on a streptavidin-coated CM5 chip at about 500 RU; CTGF flowed over at 10 ul/min, 25 °C; association 5 min, dissociation 3 min; regeneration with 4 M MgCl2; kinetic data fitted to a 1:1 Langmuir model; two independent experiments, at least six concentrations; apparent KD
Conditions: both partners purified

Kd: 400 nM
B1: bone morphogenetic protein 2 (ligand, UniProt P12643 283-396, looked up)
chain: QAKHKQRKRLKSSCKRHPLYVDFSDVGWNDWIVAPPGYHAFYCHGECPFPLADHLNSTNHAIVQTLVNSVNSKIPKACCVPTELSAISMLYLDENEKVVLKNYQDMVVEGCGCR
modifications: biotin (biotinylated BMP-2; site not stated)
notes: bone morphogenetic protein 2 (BMP-2); also called BMP-2; source: expressed and purified as described [19]
